Experimental data reported in the nanobody polyreactivity screen of Harvey et al. (2022).

Assay: yeast display, Sf9 membrane polyspecificity reagent, FACS + sequencing; frameworks hold sequencing errors
Method in brief: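 A nanobody's polyreactivity label depends on the gate it was sorted from. Yeast display cells were stained with 10% biotinylated, detergent-solubilized Sf9 membrane reagent for 1 hour at 4 °C, enriched on streptavidin microbeads and sorted by FACS. The low and high (top ~1%) gates were set on anti-HA fluorescence for expression and streptavidin fluorescence for reagent binding.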

Sequence	polyreactivity (PSR sort gate)
QVQLVESGGGLVQAGGSLRLSCAASGIIFSPYAMGWYRQAPGKERELVAAITNNGGGTYYADSVKGRFTISRDNAKNTVYLQMNSLKPEDTAVYYCAAEGFLEYPYYIWYDYWGQGTQVTVSS	high polyreactivity
QVQLVESGGGLVQAGGSLRLSCAASGFTFGTYTMGWYRQAPGKERELVAAISGSGGSTYYADSVKGRFTISRDNAKNTDYLQMNSLKPEDTAVYYCAAVGRSKRDGYWGQGTQVTVST	high polyreactivity
QVQIVESGGVLVQAGGSLRLSCAASGSITYFNAMGWYRQAPGKERELVAAISYSGGSTYYADSVKGRFTISRDNAKNTVYLQMNSLKPEDTAVYYCAADRLIGWRKTYYYWGQGTQVTVSS	high polyreactivity
QVQHVESGGGSVQAGGRLRLSCAASGSTFIEYAMGWYRKAPGKERELVAGITTSSGRTSYADSVKGRFTISRDNAKNTVYLQMNSLKPEDTAVYYCAAKSYSDYDYWGQGTQVTVSS	low polyreactivity
QVQLVESGGGLVQAGGSLRLSCAASGGTFGRYTMGWYRQAPGKERELVATITIGGGTNYADSVKGRFTISRDNAKNTVYLQMNSLKPEDTAVYYCARAWRWRCRYYEYGYWGQGTQVTVSS	high polyreactivity
KLQLVDSGGGLVQAGGSLRLSCAASGSTIRYYAMGWYRQAPGKERELVAAITISGGGTYADSVKGRFTISRDNAKNTVYLEMNSLKPEDTAVYYCAATYYGFLYRSIGDYWGQGTQVTVSS	low polyreactivity
QVQLVESGGGIVQAGGRLRKSCAASGRTFDSNAMGWYRQAPGKERELVAGISESGGSTYYADSVKGRFTISRDNAKNTVYLQMNSLKPEDTAVYYCDYSGITVYYHRAVDFIVSYDYWGQGTQVTVSS	low polyreactivity
QVQLVESGGGLVQAGGSLRLSCAASGRNFGINAMVWFRPAPGKERELVAAISRSGGRTYYADSVKGRFTISRDNAKNTVYLQMISLKPEDTAVYYCAKVPTYWYYRYYYWGQGTEVTVSS	high polyreactivity
QVQLVESGGGLVQAGGSLRLTCAASGSTFRLNAIGWYRQAPGKERELVAAISRSTGTTHYADSVKGRFTISRDNAKHTVYLQMNSLIPEDTAVYYCAAQGGDGVLALYYYWGQGTQVTVSS	low polyreactivity
QVQLVESGGGLVQAGGSLRLSCAASGSTFFNNAMGWYRQAPGKERELVAAITGGGGRTYYADSVKGRFTISRDNAKNTVYLQMNSLKPEDTAVYYCAAVPRRSYGGYPYYYWGQGTQVTVSS	low polyreactivity
QVQLVESGGGLVQAGRSLRLSCAATGLIFLLNAMGWYRQAPGKERELVAVITRVGDTNYADSVKGRFTISRDNAKNTVYLQMNSLKPEDTAVYSCAATSLTYEGYYWRQGTQVTVSS	low polyreactivity
QVHLVESGGGLVQAGGSLRLSCASSGFTFRANAMGWYRPAPGKERELVAVITGSGRTYYAHSVKGRFTISRDNAKNSVYLKMNSLKPEDTAVYYCAARAAYRVSSTGYDSWGQGSQVTVSS	high polyreactivity
QVQLVESGGGLVQAGGSLRLSCAASGYIFIGYAMGWYRQAPGKERELVTYADSVKGRFTISRDNAKNTVYFQMNSRKPEDTAVYYCNKVPRRFSGLDENYWGQGTQVTVSS	low polyreactivity
QVQLVESGGVLVQAGGSLRLSCAASGIIFYRNAMGWYRQAPGKERELVAAITSSGGRTYYADSVKGRFTISRDNAKNTVYLQMNSLKPEDTAVYYCAATRLYWKIFYGDGDYWGQGTQVTVSS	high polyreactivity
QVQLVESGGGLVQAGGSLRLSWAASGSIFQDYAMGWYRQAPGKERDLVAAISSSGTSTYYADSVKGRCTISRDNAKNTVSLQMNSLQPEDTAVFYCAAPPGRVARYDYWGQGTQVTVSS	low polyreactivity
QVQLVESGGGLVQAGGSLRLSCAASGTTFGRNAMGWYRQAPGKERELVAAITACGGTTYYADSVKGRFTISRDNAKNTVYLQMNSLKPEDTAVYYCARAGHFSFKYDYWGQGTQVTVSS	low polyreactivity
QVQLVESGGGLVQAGGSLRLSCAASGSTFTYYAMGWYRQAPGKERELVAAITGGGSTNYADSVKGRFTISRDNAKNTVYLQMNSLKPEDTAVYYCAARTARYYYGWRYTGEYGYWGQGTQVTVSS	high polyreactivity
QVQLVESGGGLVQAGGSLRLSCAASGFTFYRYAMGWYRQAPGKERELVAVISSSGGRTYYADSVKGRFTISRDNAKNTVYLQMNSLKPEDTAVYYCAAVGAVRREDYWGQGTQVTVSS	high polyreactivity
QVQLVESGGGLVQAGGSLRLSCAASGRIYPVYAMGWYRPAPGKERELVAAITSGVSTNYADSVKGRFTISRDNAKNTVYLQMNSLKPEDTAVYYCNKDYTTYPYYEDGYWGLGTQVTVSS	low polyreactivity
QVQLVESGGGLVQAGGSLRLSCAASGSIFGFYGMGWYRQAPGKERELVAAISSRGGSTYYADSVKGRFTISRDNAKNTVYLQMNSLKPEDTAVYYCATERERTMGYWGQGTQVTVSW	high polyreactivity
QVQVVESGGGLFQAGGSLRLSCAASGYIFRFNAMGWSRQAPGKERELVAVITSGARTYYADSVKGRFTISRDNAKNTVYFQINSLKPEDTAFYYFNAGARRYLYDYWGQGTQVTVSS	low polyreactivity
QVQLVESGGGLVQAGGSLRLSCAASGLTFYRYAMGWYRQAPGKERELVAAISSSGGSTYYADSVKGRFTISRDNAKNTVYLQMNSLKPEDTAVYYCAAKRVSVPYGYWGQGTQVTVSS	high polyreactivity

Sequence	polyreactivity (PSR sort gate)
QVQLVESGGGLVQAGGSLRISCAASGRTFWRNAMGWYRQAPAKERELVAAISRGGSTNYADSVKGRFTISRDNAKNTVYLQMNSLKPEDTAVYYCAARYYYRYNYWGQGTQVTVSS	high polyreactivity
QVQLVESGGGLLQAGGSLPLSCAASGFTFVPYAMGLYIQAPGKERELDAAISSRGDSTYYADSVKGRFTISRDNAKNTVYLQMIRLSPEDTAFYYCIARTTPHMDYWGQGTQVTVSS	low polyreactivity
QVQLVESGGGLVHAGGSLRLSCAASGRTFGWYAMGWYIQAPGKERELVASITHRGGRTYYADSVKGRFTISRDNAKHTVYLQMNSLNPEDTAVYYCAAKTSTGMGYWGQCTQVTVSS	high polyreactivity
QVQLVESGGGLVQAGGSLRLSCAASGSIFYDNAMGWYRQAPGKEREFVAAISTSGGSTYYADSVKGRFTISRDTAKNTVYLQMNSLKPEDTAVYYCAAEWPDLGYWWWYDVGYGYWGQGTQVTVSS	high polyreactivity
QVQLVESGGGLVQAGGSLRLSCAASGLIFLWYAMGWYRQAPGKERELVAAIRSSGDSTYYADSVKGRFTISRDNAKNTVYLQMNSLKPEDTAVYYCNRRKTNSRYDYWGQGTQVTVSS	low polyreactivity
QVQLVESGGGLVQAGGSHRLSCAASGFIFRRNAMGWYRQAPGKERELVAAITKSGGSTYYADSVKGRFTISRDNAKNTVYLQMNSLKPEDTAVYYCAAKRQTGQSYYWGQGTQVTVSS	high polyreactivity
QVQLVESGGGLVQAGGSLRLSCAASGYIFALNAMGWYRQAPGKERELVASITGAGSTNYADSVKGRFTISRDNAKNTVYLQMNSLKPEDTAVYYCAKRTRRRGYYYWGQGTQVTVSS	high polyreactivity
QVQLVESGGGLVQAGGSLRLSCAASGSTFRINAMGWYRQAPGKERELVADINSGGNTTYADSVKGRFTISRDNAKNTVYFQMNSLKPEDTAVYYCAAAPVFDLWVFLLDYGYDYWGQGTQVTVSS	low polyreactivity
QVQLVESGGGLVQAGGSLRLSCAASGNNFRRYAMGWSRQAPGKERELVAAITWRGGNTYYADSVKGRFTISRDIAKNTVYLQRNSLKPEDTAVYYCNRVYRQRLGRDYWGQGTQVTVSS	high polyreactivity
QVQLVESGGGLVQAGGSLRLSCAASGRTFFPYAMGWYRQAPGKERELVAAISLDDDTTYYADSVKGRFTISRDNAKNTVYLQMNSLKPEDTAVYYCAARGTRVRSLYDYWGQGTQVTVSS	high polyreactivity
QVQLVESGGGLVQAGGSLRLSCAASGRIYWNTKGWYRQAPGKERELVASISTGGGRTYYADSVKGRFTISRDNAKNTVYLQMNSLKPEDTAVYYCAARRGAGYSRFNYWGQGTQVTVSS	high polyreactivity
QVQLVESGGGLGQAGGSLRLSCAASGFTFRYYAMGWNRQAPGKERELVAAISASGGSTYYADSVKGRFTISRDNAKNTVYLQMNSLKPEDTAVYYCARYYAKMDYWGQGTQVTVSS	high polyreactivity
QVQLQESGRGLVQAGGSLRLSCAASGYISYFVGMGWYRQAPGKEREFVASIADGSNTYYADSVKGRFTISRDNAKNTVCLQRNSLKPEVTAVYYCAVEDSWTYRFDYWGEGTQVTVSS	high polyreactivity
QVQLVESGGGLVQAGGSLRLSCAASGGTFYYYAMGWYRQAPGKEREFVAAITWTGGRTYYADSVKGRFTISRDNAKNTVYLQMNSLKPEDTAVYYCAASDRYGGRDYWGQGTQVTVSS	high polyreactivity
QVQLVESRGGLVQAGGTLRLSCAASGSTFAVNAMGWYRQAPGKERELVATITGSGGSTYYADSVKGRFTISRDNAKNTVYLQLNSLKPEDTAVYYCATDLVFDKRYWYDYWGQGTQVTVSS	low polyreactivity
QVQLVESGGGLVQAGGSLRLICADSGSIFDGNVMGWYRQAPGKERDLVAAISGARTNYADSVKGRFTISRDNAKNTVYLQMNSLKAEDTAVYYCNVLPVGSEYDYWGQGTQVTVST	low polyreactivity
QVQLVESGGGFVQAGGSLRLSCAASGRIFVVNAMLWYRPAPAKESEFVAAISRSGGSTYYADSVKGRFTISRDKATNTVYLQMNSLKREDTAVYYCAADIVGFRTSGTYEYWGHGTQVTVSS	low polyreactivity
QVQRVESGGGLVQAGASLRLSCSASGRTFSRYAMGWYRQAPGKERELVAAIRGNSGNTYYADSVKGRFTISRDNAKNTVYLQMNSLKPEDTAVYYCAKPFNIWGQGTQVTVSS	high polyreactivity
QVQLVESGGGLVQAGGSLRLSCAASGSTFDYNTMGWYRQAPGKERELVADITLRGASTYYADSVKGRFTISRDNAKNTVYLLMNSLKPEDTAVYYCNADYYWGTYANFDYWGQGTQVTVSS	low polyreactivity
QVQLVESGGGLVQAGGSLRLSCAASGSIFDGYGMGWSRQAPGKERELVAGITSGGSTYYADSVKGRFTISRDNAKNTVYLQMNSLKPEDTAVYYCATVVRYSNARGDYWGQGTQVTVSS	low polyreactivity
QVQLVESGGGLVQAGGSLRLSCAASGITLPVYGMGWYRQAPGKERELVAVIDIVGITNYADSVKGRFTISRDNAKNTVYLQMNSLKPEDTAVYYCAKRYVDLADGGEYYYWGQGTQVTVSS	low polyreactivity
